Laboratory results as given in PMC5982450.

Experiments:
[1] = target: formylated peptide receptors (FPR) (human (endogenous in neutrophils)) (UniProt P21462)
[2] = target: C5a receptor (C5aR) (human (endogenous in neutrophils)) (UniProt P21730)
[3] = target: formylated peptide receptors (FPR) (human (endogenous in neutrophils)) (UniProt P21462); remark: listed apart in the source

UniProt P21730, sequence (P21730 whole entry): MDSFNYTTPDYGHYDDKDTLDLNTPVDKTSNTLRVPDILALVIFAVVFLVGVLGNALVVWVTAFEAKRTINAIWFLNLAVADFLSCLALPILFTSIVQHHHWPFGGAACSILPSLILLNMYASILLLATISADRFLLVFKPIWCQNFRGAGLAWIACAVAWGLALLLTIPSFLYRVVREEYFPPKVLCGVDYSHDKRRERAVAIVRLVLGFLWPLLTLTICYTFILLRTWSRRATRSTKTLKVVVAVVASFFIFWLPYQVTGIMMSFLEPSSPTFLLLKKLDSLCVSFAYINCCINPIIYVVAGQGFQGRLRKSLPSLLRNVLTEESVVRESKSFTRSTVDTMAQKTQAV
UniProt P21462, sequence (P21462 whole entry): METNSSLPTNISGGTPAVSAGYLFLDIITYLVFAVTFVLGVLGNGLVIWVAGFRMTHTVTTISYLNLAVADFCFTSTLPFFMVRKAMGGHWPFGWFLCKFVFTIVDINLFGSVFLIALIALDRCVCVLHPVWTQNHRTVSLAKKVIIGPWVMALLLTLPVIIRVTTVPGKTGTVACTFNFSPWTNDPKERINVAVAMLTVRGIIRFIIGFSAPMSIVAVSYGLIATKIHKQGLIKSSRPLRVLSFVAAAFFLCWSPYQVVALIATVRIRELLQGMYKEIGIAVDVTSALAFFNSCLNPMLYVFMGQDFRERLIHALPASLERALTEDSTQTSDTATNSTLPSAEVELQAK

| Substance | neutrophil chemotaxis towards human fracture hematoma serum in a 3D fibrin gel, mean vector speed without vs with CHIPS (10 μg/ml); value is the speed with CHIPS [1] [μm/min] | neutrophil chemotaxis towards human fracture hematoma serum in a 3D fibrin gel, mean vector speed without vs with CHIPS (10 μg/ml); value is the speed with CHIPS [2] [μm/min] | neutrophil chemotaxis towards fMLF (10^-7 M) in a 3D fibrin gel, mean vector speed without vs with CHIPS (10 μg/ml); value is the speed with CHIPS [3] [μm/min] | neutrophil chemotaxis towards human fracture hematoma serum in a 3D fibrin gel, mean vector speed without vs with CHIPSΔ1F (10 μg/ml); value is the speed with CHIPSΔ1F [2] [μm/min] |
| --- | --- | --- | --- | --- |
| chemotaxis inhibitory protein of Staphylococcus aureus (CHIPS) (from UniProt A6QIG7 29-149) (natural protein) | 3.3 | 3.3 | 0.4 |  |
| CHIPSΔ1F, a CHIPS mutant lacking the first N-terminal amino acid (domain or fragment) |  |  |  | 4 |
